The stoichiometry N is the number of molecules, sites or subunits per partner or assembly.

The assay addresses His-tagged KCNE1 C-terminus (E1C) (human) (UniProt P15382). Description: SEC.

“His-tagged KCNE1 C-terminus (E1C) (from UniProt P15382 67-129) (domain or fragment)” returned a stoichiometry N of 2.

Source of the values: paper PMC2888147.
